Experimental data reported in paper PMC6467934, “Cell-Free and Yeast-Based Production of the Malarial Lactate Transporter, PfFNT, Delivers Comparable Yield and Protein Quality” (Frontiers in Pharmacology, 2019).

Molecular target: the molecule itself
Test: negative-stain transmission electron microscopy with class sums; purified, detergent-solubilized PfFNT (yeast-produced in DM, cell-free in Brij 78); uranyl acetate stain; reference-free alignment without any symmetry imposed

Row | Protein | stoichiometry N
1 | Plasmodium falciparum lactate transporter PfFNT, produced in Pichia pastoris yeast (natural protein, UniProt O77389 1-309, looked up, PfFNT, lactate transporter (formate-nitrite transporter family) of Plasmodium falciparum; monomer printed as 30 kDa, pentamer 150 kDa; Homopentamer; also called cell-based PfFNT; yeast-produced PfFNT; source: P. pastoris (PichiaPink), fermenter culture; membranes solubilized with LDAO, purified (Ni-NTA, size exclusion) in DM; not shown: His10, C-terminal, kept) MPPNNSKYVLDPVSIKSVCGGEESYIRCVEYGKKKAHYSNLNLLAKAILAGMFVGLCAHASGIAGGLFYYHKLREIVGASMSVFVYGFTFPIAFMCIICTGSDLFTGNTLAVTMALYEKKVKLLDYLRVMTISLFGNYVGAVSFAFFVSYLSGAFTNVHAVEKNHFFQFLNDIAEKKVHHTFVECVSLAVGCNIFVCLAVYFVLTLKDGAGYVFSVFFAVYAFAIAGYEHIIANIYTLNIALMVNTKITVYQAYIKNLLPTLLGNYIAGAIVLGLPLYFIYKEHYYNFERSKRDNNDAQMKSLSIELRN | 5
2 | Plasmodium falciparum lactate transporter PfFNT, produced cell-free in an E. coli S30 extract (natural protein, UniProt O77389 1-309, looked up, PfFNT, lactate transporter (formate-nitrite transporter family) of Plasmodium falciparum; codon-optimized open reading frame in pIVEX2.3; monomer printed as 30 kDa, pentamer 150 kDa; Homopentamer; A factor Xa digestion site lies between PfFNT and the C-terminal His10-tag; no cleavage is reported; also called cell-free PfFNT; cell-free produced PfFNT; source: E. coli S30 extract cell-free system …) MPPNNSKYVLDPVSIKSVCGGEESYIRCVEYGKKKAHYSNLNLLAKAILAGMFVGLCAHASGIAGGLFYYHKLREIVGASMSVFVYGFTFPIAFMCIICTGSDLFTGNTLAVTMALYEKKVKLLDYLRVMTISLFGNYVGAVSFAFFVSYLSGAFTNVHAVEKNHFFQFLNDIAEKKVHHTFVECVSLAVGCNIFVCLAVYFVLTLKDGAGYVFSVFFAVYAFAIAGYEHIIANIYTLNIALMVNTKITVYQAYIKNLLPTLLGNYIAGAIVLGLPLYFIYKEHYYNFERSKRDNNDAQMKSLSIELRN | 5
